# Experimental data: the RNAGym collection of RNA variant scans (doi:10.7554/elife.80360)
# B1: Hammerhead Ribozyme (parent)
# chain: ACCGGAUGUGCUUUCCGGUCUGAUGAGUCCGUGAGGACGAAACAG
# Variants of: B1
# Assay: self-cleavage, relative activity (ratio to wild type); higher = more cleavage; co-transcriptional
row,Variant,self-cleavage
1,ACCGGAUGUGGUUUCCGGUCUGAUGAGUCCGUGUGGACGAAACAG,1.07
2,GCCGGAUGUGCUUUCCGGUCUGAUGAGUCCGUGAGGACAAAACAG,0.384
3,ACCGAAUGUGCUUUCCGGUCUGAUGAGUCCGUUAGGACGAAACAG,1.44
4,ACCGGAGGUGCUUUCCGUUCUGAUGAGUCCGUGAGGACGAAACAG,0.46
5,ACCGGAUGUGCUUUUCGGUCUGAUGAGUCCGGGAGGACGAAACAG,0.623
6,ACCGGGUGUGCAUUCCGGUCUGAUGAGUCCGUGAGGACGAAACAG,0.819
7,ACCGGAUGUGCUUUCCGGUCUGAUGGGUCCGUGAGGACGAAACAU,0.338
8,ACCAGAUGGGCUUUCCGGUCUGAUGAGUCCGUGAGGACGAAACAG,0.423
9,ACCGGUUGUGCUUUCCGGUCUGAUGAGUCCCUGAGGACGAAACAG,0.704
10,ACCGGAUGCGCUUUCCGGUCUGAUGCGUCCGUGAGGACGAAACAG,0.554
11,ACCGGAUGUGCUUUCUGGUCUGAUGAGUCCGGGAGGACGAAACAG,1
12,ACCGCAUGUGCUUUCCGCUCUGAUGAGUCCGUGAGGACGAAACAG,0.34
13,ACCGGAUGUGCUUUACGGUCAGAUGAGUCCGUGAGGACGAAACAG,0.415
14,ACCGGAUGAGCUUUCCGUUCUGAUGAGUCCGUGAGGACGAAACAG,0.546
15,ACCGGUUGUGCUUUCCGGUCUGUUGAGUCCGUGAGGACGAAACAG,0.311
16,ACCUGAUGUGCUUUCCGGUCUGAGGAGUCCGUGAGGACGAAACAG,0.372
17,ACCGGAUGUGCUUUCGGGUCUGAUGAGUCUGUGAGGACGAAACAG,0.899
18,ACCGGAGGUGCUUUCCGGUCUGAUGAGUCCGUAAGGACGAAACAG,1.34
19,ACCGGAUGUGCUUUCCGGUCUGAUCAGUCCGCGAGGACGAAACAG,0.342

row,Variant,self-cleavage
1,ACCGGAUGUGCUUUCCUGUCUGAUGAGUCCGUGAGGACAAAACAG,0.328
2,ACCAGAUGUGCUUUCCGGUCUGAUGAGUCCGUGAGGGCGAAACAG,0.391
3,ACCAGAUGUGCUUUCCGGUCUGAUGAGUCCGUGAGGAGGAAACAG,0.344
4,AACGGAUGUGCUUUCCGGUCUGAUGAGUCCGUGAGGAUGAAACAG,0.606
5,ACCGGAUGUGCUUUCCGGUCUGAUUAGUCCGUGAGGACGUAACAG,0.417
6,ACCGGAUGUGCUUUCCGGUCUGAUGGGUCCGUGAGGACGAGACAG,0.284
7,ACCUGAUGUGCUUUCCUGUCUGAUGAGUCCGUGAGGACGAAACAG,0.294
8,ACCGGAUGUGCUUUCCGGUCUGAUGAGUCCGGGACGACGAAACAG,0.626
9,ACCGGAUGUGAUUUCCGGUCCGAUGAGUCCGUGAGGACGAAACAG,0.848
10,ACCGGAUGUGCUUUCCGGUCUGAUGAGUCCGAGAGGAGGAAACAG,0.733
11,ACCGGAUGUGAUUUCCGGUCUGAUGAGUCCGUGAGAACGAAACAG,0.847
12,UCCGGAUGUGCUUUACGGUCUGAUGAGUCCGUGAGGACGAAACAG,0.373
13,ACCGGAUGUGCUUUCCGGACUGAUGAGUCCGUGAGGACGAGACAG,0.312
14,ACCGGAUGUGCUUUCCGGUCUGAUGAGUCCGUGAGGUCGUAACAG,0.303
15,ACCGGAUCUGCUUUCCGGUCUAAUGAGUCCGUGAGGACGAAACAG,0.347
16,ACCGGAUGUGCUUUCCGGUCUGAUGAUUCCGUGAGGACGAAAAAG,0.374
17,ACCGGAUGUGCUUUCCGGUCUGAUGAGGCCGUGAGGGCGAAACAG,0.45
18,ACCGGAUGUGCUUUCCGGUCUGAUGAGUCCGUGCGGACGAAACAA,0.524
19,ACCGGAUGUGCUUUCCGGUCUGUUGAGUACGUGAGGACGAAACAG,0.352

row,Variant,self-cleavage
1,ACCGGAUGUGCUUUCCGGUCUGAUGAGUCCGUAAGGACGGAACAG,0.503
2,ACCGGAUGUGCUUUACGGUCUGAUGAGUCGGUGAGGACGAAACAG,0.557
3,AGCGGAUGAGCUUUCCGGUCUGAUGAGUCCGUGAGGACGAAACAG,0.367
4,ACCGGACGUGCUUUCGGGUCUGAUGAGUCCGUGAGGACGAAACAG,0.487
5,ACCGGAUGUGCUUUCCGGUCUGAUGUGUCCGUCAGGACGAAACAG,0.546
6,UCCGGAUGUGCUUUCCGGUCUGAUGAGUCCUUGAGGACGAAACAG,0.748
7,ACCGGAUGUGCUUUCCGGUCUGAUGAUUCCGCGAGGACGAAACAG,0.495
8,ACCGGAUGUGCUUUCCGGUGUGAUGAGUACGUGAGGACGAAACAG,0.312
9,ACCGGAUGUGCUAUCCGGUCUGAUGAGUCCGUGAGAACGAAACAG,0.732
10,ACCGGAUGUGCUUUCCGGUCUGAUCAGUCCGUGAGGGCGAAACAG,0.321
11,CCCGGAUGUGCUUUCCGGUCUGAUGAGUCCGUGAGGACUAAACAG,0.341
12,AGCGGAUGUGCUAUCCGGUCUGAUGAGUCCGUGAGGACGAAACAG,0.353
13,ACCGGAUGUGCCUUCCAGUCUGAUGAGUCCGUGAGGACGAAACAG,0.79
14,ACCGGAUGUGCUUUCCGGUCUGAUGAUUCCGUGAGGACGUAACAG,0.402
15,ACCGGAUGUGCUUACUGGUCUGAUGAGUCCGUGAGGACGAAACAG,0.798
16,AACGGAUGUGCUUUACGGUCUGAUGAGUCCGUGAGGACGAAACAG,0.378
17,ACGGGAAGUGCUUUCCGGUCUGAUGAGUCCGUGAGGACGAAACAG,0.471
18,ACCGGAUGUGUUUUCCGGUCUAAUGAGUCCGUGAGGACGAAACAG,0.382
19,ACCGGAUGUGCUUUCCGGUCUGAUGAGUCCGUGACGACGAAACAG,0.791
